The target in assay [1] is LgBit, an 18-kDa subunit of NanoLuc. Nature of the assay: split reporter.
The target of assay [2] is Kelch domain of Kelch-like ECH-associated protein 1 (Keap1). In words: fluorescence polarisation. A general note: Polarisation of emitted light reports the rotation of a fluorescent probe.

Usually IC50 stands for the concentration that inhibits the measured activity by half.

Molecule VSGWRLFKKIS [HiBit, an 11-residue peptide derived from NanoLuc] displayed a fold induction of luminescence at 10 μM in assay [1] of 20 fold.

Turning to GQLDPETGEFL (here or on the partner: cyclic peptide) [cyclic peptidyl inhibitor P1, Cyclo(…)], the IC50 in assay [2] stood at 14 nM.

The values are drawn from article PMC9175492.
